Experimental data from the supplement of paper PMC9112550, “Optimization of the antimicrobial peptide Bac7 by deep mutational scanning” (BMC Biology, 2022).

System: Escherichia coli TOP10
Test: shrunken log2 fold change of peptide-encoding DNA abundance (4.5 h post-induction vs induction); higher = less antimicrobial activity (less host growth inhibition)
Settings: time post-induction: 4.5 h; library: site-saturation at positions 5, 18, 19, 20
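Also: peptides expressed intracellularly from a pBAD plasmid library in pooled LB shake-flask culture, induced with 0.3% L-arabinose, DNA abundance read by NGS, three biological replicates, DESeq2 with apeglm shrinkage.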

Sequence | shrunken log2 fold change
RRIRWRPPRLPRPRPRPEGLPRP | 0.267
RRIRMRPPRLPRPRPRPTEMPRP | 0.14
RRIRKRPPRLPRPRPRPYCMPRP | -0.461
RRIRHRPPRLPRPRPRPTCKPRP | -0.015
RRIRQRPPRLPRPRPRPAVNPRP | -0.0181
RRIRARPPRLPRPRPRPFTDPRP | 0.128
RRIRYRPPRLPRPRPRPKNTPRP | -0.579
RRIRIRPPRLPRPRPRPVQAPRP | 0.0348
RRIRWRPPRLPRPRPRPAHFPRP | 0.141
RRIRTRPPRLPRPRPRPRAEPRP | 0.28
RRIRARPPRLPRPRPRPGEYPRP | 0.0829
RRIRFRPPRLPRPRPRPDWQPRP | 0.0911
RRIRIRPPRLPRPRPRPTWEPRP | -0.212
RRIRHRPPRLPRPRPRPYPYPRP | -0.43
RRIRKRPPRLPRPRPRPALAPRP | 0.885
RRIRNRPPRLPRPRPRPYDTPRP | -0.22
RRIRPRPPRLPRPRPRPAWRPRP | 0.645
RRIRQRPPRLPRPRPRPVKQPRP | -0.0153
RRIRKRPPRLPRPRPRPTMVPRP | 0.27
RRIRGRPPRLPRPRPRPHGCPRP | 0.585
RRIRWRPPRLPRPRPRPEYVPRP | 0.214
RRIRGRPPRLPRPRPRPVSRPRP | 0.491
RRIRARPPRLPRPRPRPWMFPRP | -0.0244
RRIRDRPPRLPRPRPRPFLRPRP | 0.00895
RRIRVRPPRLPRPRPRPHYHPRP | -0.397

Sequence | shrunken log2 fold change
RRIRCRPPRLPRPRPRPEFEPRP | 0.0293
RRIRERPPRLPRPRPRPILRPRP | 0.109
RRIRYRPPRLPRPRPRPHGNPRP | -0.573
RRIRYRPPRLPRPRPRPWQHPRP | -0.185
RRIRGRPPRLPRPRPRPDDFPRP | 0.0116
RRIRARPPRLPRPRPRPFTKPRP | -0.295
RRIRQRPPRLPRPRPRPTSKPRP | -0.189
RRIRSRPPRLPRPRPRPWMPPRP | -0.433
RRIRQRPPRLPRPRPRPISVPRP | 0.136
RRIRRRPPRLPRPRPRPVNRPRP | -0.0157
RRIRMRPPRLPRPRPRPGSFPRP | 1.04
RRIRKRPPRLPRPRPRPDNSPRP | -0.00848
RRIRMRPPRLPRPRPRPGDSPRP | 0.557
RRIRRRPPRLPRPRPRPSTRPRP | 0.194
RRIRGRPPRLPRPRPRPMYDPRP | 0.233
RRIRLRPPRLPRPRPRPHRLPRP | 0.166
RRIRDRPPRLPRPRPRPKCKPRP | -0.0015
RRIRRRPPRLPRPRPRPQYPPRP | -0.444
RRIRYRPPRLPRPRPRPRYVPRP | -0.0777
RRIRDRPPRLPRPRPRPPWNPRP | -0.0258
RRIRARPPRLPRPRPRPEQVPRP | 0.453
RRIRPRPPRLPRPRPRPLSIPRP | -0.498
RRIRDRPPRLPRPRPRPFWTPRP | -0.116
RRIRVRPPRLPRPRPRPDHHPRP | -0.392
RRIRMRPPRLPRPRPRPPVMPRP | 0.616

Sequence | shrunken log2 fold change
RRIRVRPPRLPRPRPRPMDIPRP | -0.308
RRIRWRPPRLPRPRPRPIVMPRP | -0.154
RRIRYRPPRLPRPRPRPHNIPRP | -0.238
RRIRNRPPRLPRPRPRPDMDPRP | -0.0127
RRIRERPPRLPRPRPRPSWLPRP | 0.177
RRIRWRPPRLPRPRPRPEGVPRP | 0.601
RRIRCRPPRLPRPRPRPDFQPRP | -0.294
RRIRNRPPRLPRPRPRPEKLPRP | -0.00804
RRIRIRPPRLPRPRPRPHNHPRP | -0.93
RRIRQRPPRLPRPRPRPAWNPRP | -0.206
RRIRWRPPRLPRPRPRPTPWPRP | 0.48
RRIRSRPPRLPRPRPRPHSFPRP | 0.176
RRIRIRPPRLPRPRPRPTRTPRP | 0.22
RRIRQRPPRLPRPRPRPQTAPRP | -0.000297
RRIRSRPPRLPRPRPRPTHPPRP | 0.298
RRIRSRPPRLPRPRPRPMHFPRP | 0.0521
RRIRQRPPRLPRPRPRPMKEPRP | -0.0272
RRIRERPPRLPRPRPRPSAKPRP | 0.0244
RRIRERPPRLPRPRPRPFHFPRP | -0.787
RRIRMRPPRLPRPRPRPFDYPRP | -0.16
RRIRHRPPRLPRPRPRPKCKPRP | -0.14
RRIRKRPPRLPRPRPRPWHSPRP | 0.0422
RRIRLRPPRLPRPRPRPLVTPRP | 0.000277
RRIRYRPPRLPRPRPRPQIPPRP | -0.17
RRIRTRPPRLPRPRPRPTFFPRP | -0.11

Sequence | shrunken log2 fold change
RRIRERPPRLPRPRPRPGRQPRP | 0.0676
RRIRARPPRLPRPRPRPRCRPRP | 0.427
RRIRHRPPRLPRPRPRPLDRPRP | -0.56
RRIRRRPPRLPRPRPRPFKMPRP | -0.124
RRIRNRPPRLPRPRPRPIPKPRP | -0.0467
RRIRGRPPRLPRPRPRPLHVPRP | -0.0922
RRIRMRPPRLPRPRPRPWIPPRP | -0.205
RRIRPRPPRLPRPRPRPLPYPRP | -0.31
RRIRPRPPRLPRPRPRPVNYPRP | -0.335
RRIRFRPPRLPRPRPRPGMEPRP | 0.0216
RRIRSRPPRLPRPRPRPLWSPRP | -0.0384
RRIRYRPPRLPRPRPRPDPWPRP | -0.26
RRIRGRPPRLPRPRPRPTSLPRP | 0.542
RRIRVRPPRLPRPRPRPEYWPRP | -0.161
RRIRYRPPRLPRPRPRPDTPPRP | 0.0497
RRIRMRPPRLPRPRPRPKELPRP | 0.642
RRIRRRPPRLPRPRPRPNMMPRP | -0.245
RRIRGRPPRLPRPRPRPNKPPRP | -0.035
RRIRKRPPRLPRPRPRPNCMPRP | -0.0663
RRIRTRPPRLPRPRPRPMISPRP | -0.0443
RRIRKRPPRLPRPRPRPPENPRP | 1.15
RRIRCRPPRLPRPRPRPIECPRP | -0.00475
RRIRIRPPRLPRPRPRPFFMPRP | -0.538
RRIRNRPPRLPRPRPRPSVCPRP | -0.174
RRIRMRPPRLPRPRPRPTRDPRP | 0.314

Sequence | shrunken log2 fold change
RRIRGRPPRLPRPRPRPLMHPRP | 0.592
RRIRKRPPRLPRPRPRPKHDPRP | 0.133
RRIRSRPPRLPRPRPRPMKMPRP | -0.0963
RRIRCRPPRLPRPRPRPQKWPRP | -0.568
RRIRHRPPRLPRPRPRPDHNPRP | -0.956
RRIRCRPPRLPRPRPRPDVSPRP | -0.185
RRIRQRPPRLPRPRPRPIDPPRP | 0.0328
RRIRTRPPRLPRPRPRPFPQPRP | -0.042
RRIRDRPPRLPRPRPRPQPFPRP | -0.0264
RRIRDRPPRLPRPRPRPYANPRP | -0.209
RRIRQRPPRLPRPRPRPCRGPRP | 0.104
RRIRGRPPRLPRPRPRPILPPRP | 0.0676
RRIRDRPPRLPRPRPRPHGWPRP | 0.861
RRIRGRPPRLPRPRPRPSWMPRP | -0.208
RRIRSRPPRLPRPRPRPEHCPRP | -0.0141
RRIRNRPPRLPRPRPRPRWMPRP | 0.0606
RRIRQRPPRLPRPRPRPHFPPRP | -0.216
RRIRTRPPRLPRPRPRPCAMPRP | -0.111
RRIRFRPPRLPRPRPRPGPKPRP | 0.066
RRIRHRPPRLPRPRPRPESVPRP | 0.0222
RRIRSRPPRLPRPRPRPVTCPRP | -0.299
RRIRLRPPRLPRPRPRPIAAPRP | 0.272
RRIRWRPPRLPRPRPRPFCAPRP | 0.23
RRIRQRPPRLPRPRPRPKAPPRP | 0.653
RRIRMRPPRLPRPRPRPQIMPRP | -0.0466
